The values below come from paper PMC8169799 (iScience, 2021).

What is called stoichiometry N is the number of molecules, sites or subunits per partner or assembly.

The data set concerns the molecule itself. Put plainly: cryo-EM structure.

B1: copper efflux regulator (CueR), Escherichia coli (natural protein, E. coli)
chain: MNISDVAKITGLTSKAIRFYEEKGLVTPPMRSENGYRTYTQQHLNELTLLRQARQVGFNLEESGELVNLFNDPQRHSADVKRRTLEKVAEIERHIEELQSMRDQLLALANACPGDDSADCPIIENLSGCCHHRAG
On to B1, for which the “stoichiometry N” value is 2.
